Laboratory results from patent publication US20090233868A1, “Small antiviral peptides against hepatitis C virus” (priority 2005, published 2009).

What was measured:
[1] = system: HCV IRES mediated translation; test: In vitro translation of uncapped HCV-IRES-Luc monocistronic RNA in rabbit reticulocyte lysate; assay type: biochemical, hepatitis C virus; conditions: 25 ng and 50 ng protein; data not shown
[2] = system: nonspecific RNA; test: Filter binding assay with nonspecific RNA probe; conditions: control probe, same filter-binding assay

B1: wt-La: purified recombinant full-length wildtype human La protein (p52) (protein, UniProt P05455 1-408, looked up)
chain: MAENGDNEKMAALEAKICHQIEYYFGDFNLPRDKFLKEQIKLDEGWVPLEIMIKFNRLNRLTTDFNVIVEALSKSKAELMEISEDKTKIRRSPSKPLPEVTDEYKNDVKNRSVYIKGFPTDATLDDIKEWLEDKGQVLNIQMRRTLHKAFKGSIFVVFDSIESAKKFVETPGQKYKETDLLILFKDDYFAKKNEERKQNKVEAKLRAKQEQEAKQKLEEDAEMKSLEEKIGCLLKFSGDLDDQTCREDLHILFSNHGEIKWIDFVRGAKEGIILFKEKAKEALGKAKDANNGNLQLRNKEVTWEVLEGEVEKEALKKIIEDQQESLNKWKSKGRRFKGKGKGNKAAQPGSGKGKVQFQGKKTKFASDDEHDEHDENGATGPVKRAREETDKEEPASKQQKTENGAGDQ
modifications: full-length
[1]
  Stimulation of HCV IRES mediated translation in absence of peptide: dose dependent stimulation
[2]
  Binding of non-specific RNA probe (filter binding): did not show considerable binding
